Test results as given in the Human Domainome abundance scans (Beltran et al. 2025).
± gives the uncertainty stated by the source.

B1: POU domain, class 6, transcription factor 2, residues 609 to 663; numbered along this chain, P78424 (parent)
chain: KRRTSFTPQALEILNAHFEKNTHPSGQEMTEIAEKLNYDREVVRVWFCNKRQALK

Variants of: B1
Assay: abundance fitness (aPCA) (normalised: wild type 0, dead -1); higher = more abundant; growth selection in yeast, the domain comes from the species named
Details: Homo sapiens

Variant | abundance fitness
KRRTSFTPQALEILNAHFEKNNHPSGQEMTEIAEKLNYDREVVRVWFCNKRQALK [T22N] | 0.049 ± 0.12
KRRTSFTPQALEILNAHFEKNEHPSGQEMTEIAEKLNYDREVVRVWFCNKRQALK [T22E] | -0.098 ± 0.19
KRRTSFTPQALEILNAHFEKNWHPSGQEMTEIAEKLNYDREVVRVWFCNKRQALK [T22W] | -0.176 ± 0.073
KRRTSFTPQALEILNAHFEKNVHPSGQEMTEIAEKLNYDREVVRVWFCNKRQALK [T22V] | 0.105 ± 0.11
KRRTSFTPQALEILNAHFEKNFHPSGQEMTEIAEKLNYDREVVRVWFCNKRQALK [T22F] | -0.198 ± 0.13
KRRTSFTPQALEILNAHFEKNSHPSGQEMTEIAEKLNYDREVVRVWFCNKRQALK [T22S] | 0.003 ± 0.073
KRRTSFTPQALEILNAHFEKNQHPSGQEMTEIAEKLNYDREVVRVWFCNKRQALK [T22Q] | 0.084 ± 0.14
KRRTSFTPQALEILNAHFEKNIHPSGQEMTEIAEKLNYDREVVRVWFCNKRQALK [T22I] | -0.103 ± 0.11
KRRTSFTPQALEILNAHFEKNHHPSGQEMTEIAEKLNYDREVVRVWFCNKRQALK [T22H] | 0.134 ± 0.14
KRRTSFTPQALEILNAHFEKNPHPSGQEMTEIAEKLNYDREVVRVWFCNKRQALK [T22P] | 0.016 ± 0.1
KRRTSFTPQALEILNAHFEKNMHPSGQEMTEIAEKLNYDREVVRVWFCNKRQALK [T22M] | -0.022 ± 0.13
KRRTSFTPQALEILNAHFEKNYHPSGQEMTEIAEKLNYDREVVRVWFCNKRQALK [T22Y] | -0.201 ± 0.13
KRRTSFTPQALEILNAHFEKNRHPSGQEMTEIAEKLNYDREVVRVWFCNKRQALK [T22R] | 0.005 ± 0.065
KRRTSFTPQALEILNAHFEKNLHPSGQEMTEIAEKLNYDREVVRVWFCNKRQALK [T22L] | -0.017 ± 0.077
KRRTSFTPQALEILNAHFEKNGHPSGQEMTEIAEKLNYDREVVRVWFCNKRQALK [T22G] | 0.002 ± 0.067
KRRTSFTPQALEILNAHFEKNKHPSGQEMTEIAEKLNYDREVVRVWFCNKRQALK [T22K] | -0.089 ± 0.11
KRRTSFTPQALEILNAHFEKNTWPSGQEMTEIAEKLNYDREVVRVWFCNKRQALK [H23W] | -0.124 ± 0.11
KRRTSFTPQALEILNAHFEKNTCPSGQEMTEIAEKLNYDREVVRVWFCNKRQALK [H23C] | 0.018 ± 0.089
KRRTSFTPQALEILNAHFEKNTKPSGQEMTEIAEKLNYDREVVRVWFCNKRQALK [H23K] | -0.034 ± 0.12
KRRTSFTPQALEILNAHFEKNTGPSGQEMTEIAEKLNYDREVVRVWFCNKRQALK [H23G] | -0.217 ± 0.063
KRRTSFTPQALEILNAHFEKNTAPSGQEMTEIAEKLNYDREVVRVWFCNKRQALK [H23A] | -0.062 ± 0.094
KRRTSFTPQALEILNAHFEKNTIPSGQEMTEIAEKLNYDREVVRVWFCNKRQALK [H23I] | -0.169 ± 0.2
KRRTSFTPQALEILNAHFEKNTRPSGQEMTEIAEKLNYDREVVRVWFCNKRQALK [H23R] | 0.011 ± 0.07
KRRTSFTPQALEILNAHFEKNTEPSGQEMTEIAEKLNYDREVVRVWFCNKRQALK [H23E] | 0.072 ± 0.11

Variant | abundance fitness
KRRTSFTPQALEILNAHFEKNTMPSGQEMTEIAEKLNYDREVVRVWFCNKRQALK [H23M] | -0.275 ± 0.15
KRRTSFTPQALEILNAHFEKNTQPSGQEMTEIAEKLNYDREVVRVWFCNKRQALK [H23Q] | -0.029 ± 0.13
KRRTSFTPQALEILNAHFEKNTVPSGQEMTEIAEKLNYDREVVRVWFCNKRQALK [H23V] | -0.086 ± 0.074
KRRTSFTPQALEILNAHFEKNTNPSGQEMTEIAEKLNYDREVVRVWFCNKRQALK [H23N] | -0.027 ± 0.16
KRRTSFTPQALEILNAHFEKNTPPSGQEMTEIAEKLNYDREVVRVWFCNKRQALK [H23P] | -1.1 ± 0.41
KRRTSFTPQALEILNAHFEKNTYPSGQEMTEIAEKLNYDREVVRVWFCNKRQALK [H23Y] | -0.257 ± 0.15
KRRTSFTPQALEILNAHFEKNTFPSGQEMTEIAEKLNYDREVVRVWFCNKRQALK [H23F] | -0.096 ± 0.14
KRRTSFTPQALEILNAHFEKNTSPSGQEMTEIAEKLNYDREVVRVWFCNKRQALK [H23S] | 0.036 ± 0.12
KRRTSFTPQALEILNAHFEKNTHDSGQEMTEIAEKLNYDREVVRVWFCNKRQALK [P24D] | -0.792 ± 0.12
KRRTSFTPQALEILNAHFEKNTHASGQEMTEIAEKLNYDREVVRVWFCNKRQALK [P24A] | -0.497 ± 0.068
KRRTSFTPQALEILNAHFEKNTHCSGQEMTEIAEKLNYDREVVRVWFCNKRQALK [P24C] | -0.462 ± 0.1
KRRTSFTPQALEILNAHFEKNTHTSGQEMTEIAEKLNYDREVVRVWFCNKRQALK [P24T] | -0.641 ± 0.11
KRRTSFTPQALEILNAHFEKNTHESGQEMTEIAEKLNYDREVVRVWFCNKRQALK [P24E] | -0.978 ± 0.11
KRRTSFTPQALEILNAHFEKNTHLSGQEMTEIAEKLNYDREVVRVWFCNKRQALK [P24L] | -0.394 ± 0.064
KRRTSFTPQALEILNAHFEKNTHNSGQEMTEIAEKLNYDREVVRVWFCNKRQALK [P24N] | -0.96 ± 0.24
KRRTSFTPQALEILNAHFEKNTHHSGQEMTEIAEKLNYDREVVRVWFCNKRQALK [P24H] | -0.905 ± 0.17
KRRTSFTPQALEILNAHFEKNTHRSGQEMTEIAEKLNYDREVVRVWFCNKRQALK [P24R] | -0.909 ± 0.068
KRRTSFTPQALEILNAHFEKNTHKSGQEMTEIAEKLNYDREVVRVWFCNKRQALK [P24K] | -1.1 ± 0.15
KRRTSFTPQALEILNAHFEKNTHFSGQEMTEIAEKLNYDREVVRVWFCNKRQALK [P24F] | -0.916 ± 0.14
KRRTSFTPQALEILNAHFEKNTHMSGQEMTEIAEKLNYDREVVRVWFCNKRQALK [P24M] | -0.327 ± 0.074
KRRTSFTPQALEILNAHFEKNTHVSGQEMTEIAEKLNYDREVVRVWFCNKRQALK [P24V] | -0.386 ± 0.058
KRRTSFTPQALEILNAHFEKNTHWSGQEMTEIAEKLNYDREVVRVWFCNKRQALK [P24W] | -0.317 ± 0.067
KRRTSFTPQALEILNAHFEKNTHISGQEMTEIAEKLNYDREVVRVWFCNKRQALK [P24I] | -0.21 ± 0.1
KRRTSFTPQALEILNAHFEKNTHQSGQEMTEIAEKLNYDREVVRVWFCNKRQALK [P24Q] | -0.741 ± 0.14
